In PMC11381523 (Nature Communications, 2024):

Biological target: Rpb2 subunit of Komagataella phaffii RNA polymerase II (TAP-tagged) (Komagataella phaffii, UniProt F2QTX9 1-1227)
Test: cryo-EM structure

binding result: binds
B1: Komagataella phaffii Rai1 (E213A/D215A), kpRai1(2A) (enzyme)
chain: MSKEKILPLAARSKKAMLRQPKQVAYFSRDLNYKTHPDRSNLSYYYLPDGDIDNSIDLSVGSKHFLLGDSVELSKLDPILLALKEIEKESGAKTKDRIITWRGIMRKLLTLPYDSEEDFVLDVVSFDGQLFIQFNVPYLKSKDVQKQGDTEFHKKLQFSGYKFEKMATLPKPWPECTRKEIDSRAKSKCNNIEQYGAIVRTGISRIKILIGGAVACTADYYDENDPLSRYIELKTTRTINQYKDMIAFEKKLFRTWAQCFLLGIPKIIYGFRDDNCILRTVEEFSTNDIPLMVKNNPLNEQPKKENCYMSSINFYGAVVEWLNESVKDDQVWKLSYAKRNRQYLVLKEVTDENEKQQIVDSAIPAWFKEWRSELRNSEGNI
